1 molecule from US20220098289A1 (CONSEJO SUPERIOR DE INVESTIGACIONES CIENT FICAS, published 2022) can be followed below.

The test addresses T1, human Aβ1-42 peptides (human, UniProt P05067 672-713).
T1 construct: domain: Aβ1-42; Synthetic peptide prepared to obtain minimal aggregation; also called Aβ peptides
Briefly: recombinant proteins mixed in vitro for 24 hrs at 37° C., then Western blot. As to the method:
Protein-protein binding assays. Nanomolar concentrations of recombinant human SFRP1 (RD cat: 5396-SF-025) and human Aβ1-42 peptides (Invitrogen, cat: 03-111, prepared to obtain minimal peptide aggregation) were mixed in protein Lobind tubes (Eppendorf) for 24 hrs at 37° C. NuPAGE LDS sample buffer (4×) was added to the tubes, boiled for 5 min and subjected to Western blot analysis. Microplate-based solid-phase protein-protein binding assays was performed by immobilizing in wells 200 ng/well of either human Aβ1-42 peptides, BSA, used as a […] control because previously described as an Aβ interactor; or heparin, a described SFRP1 binding partner. Immobilization was performed overnight at 4° C. The wells were then washed with TBS 3× and incubated with two different SFRP1 concentrations for 2 hrs at RT. In the converse experiment, BSA, heparin or SFRP1 were immobilized overnight at 4° C. and two different concentrations of Aβ1-42 were added for 2 hrs at RT. The wells were washed 6× in TBS and 2× sample buffer containing β-mercaptoethanol was added to the well. The content was recovered by scrapping, boiled for 5 min and analyzed by SDS-PAGE followed by WB using anti-Sfrp1 or anti-Aβ antibodies, respectively.

T1 sequence (P05067 672-713 limits assumed): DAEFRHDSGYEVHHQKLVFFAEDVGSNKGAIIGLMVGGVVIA

B1: human recombinant SFRP1 (other, UniProt Q8N474 32-314, looked up)
chain: SEYDYVSFQSDIGPYQSGRFYTKPPQCVDIPADLRLCHNVGYKKMVLPNLLEHETMAEVKQQASSWVPLLNKNCHAGTQVFLCSLFAPVCLDRPIYPCRWLCEAVRDSCEPVMQFFGFYWPEMLKCDKFPEGDVCIAMTPPNATEASKPQGTTVCPPCDNELKSEAIIEHLCASEFALRMKIKEVKKENGDKKIVPKKKKPLKLGPIKKKDLKKLVLYLKNGADCPCHQLDNLSHHFLIMGRKVKSQYLLTAIHKWDKKNKEFKNFMKKMKNHECPTFQSVFK
notes: Bought recombinant protein; also called hSFRP1; recombinant hSFRP1
B1: the binding result is listed as “binds”.
